No end group written: not given here.
Experiments:
TR4-DR1 = TR4-DR1 (Homo sapiens, UniProt P49116); conditions: increasing amounts of in vitro translated AR (1, 2, 4 μl)
Procedure: EMSA was performed as described previously. […] Briefly, the reaction was performed by incubating the 32P-end labeled DR1 probe with in vitro translated TR4 (1 ml) with or without an increasing amount of AR (1, 2, 4 ml). The EMSA incubation buffer is 10 mM HEPES, pH 7.9, 2% (v/v) glycerol, 100 mM KCl, 1 mM EDTA, 5 mM MgCl, and 1 mM DTT. For the antibody supershifted analysis, 1 ml of monoclonal anti-TR4 antibody (#15) was added to the reaction. […] The radioactive gel was analyzed by autoradiography.
One μl of in vitro translated TR4 protein was incubated with increasing amounts of in vitro translated AR (1 μl, 2 μl, and 4 μl) in EMSA reaction buffer (10 mM HEPES pH 7.9, 2% (v/v) glycerol, 100 mM KCl, 1 mM EDTA, 5 mM MgCl2, and 1 mM DTT) for 15 min. 32P-end labeled DR1 was added into the protein mixture and incubated for 15 min before loading. For the antibody supershift assay, 1 μl of monoclonal anti-TR4 antibody was added to the reaction and applied to a 5% native polyacrylamide gel. The radioactive gel was analyzed by autoradiography.

[1] = biological target: T1, interaction between the GAL4-ER and VPI6-TR2 (Homo sapiens, UniProt P03372, G400V); experiment: Mammalian two-hybrid assay GAL4-ER / VP16-TR2; assay type: cell-based; conditions: PC-3 cells; presence of E2; co-transfection of blocker plasmid
T1 construct: GAL4-DBD fused with ER-LBD (GAL4-ER, aa 282 to 595); expressed in transfected cells; host or cells: H1299, PC-3
T1 sequence (P03372 282-595 G400V): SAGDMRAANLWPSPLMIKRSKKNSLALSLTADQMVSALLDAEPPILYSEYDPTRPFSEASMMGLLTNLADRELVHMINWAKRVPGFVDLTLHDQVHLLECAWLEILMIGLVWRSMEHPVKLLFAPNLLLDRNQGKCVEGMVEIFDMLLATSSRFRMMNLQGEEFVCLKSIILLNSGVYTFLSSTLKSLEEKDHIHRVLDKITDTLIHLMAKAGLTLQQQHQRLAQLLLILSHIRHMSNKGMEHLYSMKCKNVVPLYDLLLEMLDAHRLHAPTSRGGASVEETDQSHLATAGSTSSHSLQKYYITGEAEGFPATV
T1 sequence (P13056 1-603 partner): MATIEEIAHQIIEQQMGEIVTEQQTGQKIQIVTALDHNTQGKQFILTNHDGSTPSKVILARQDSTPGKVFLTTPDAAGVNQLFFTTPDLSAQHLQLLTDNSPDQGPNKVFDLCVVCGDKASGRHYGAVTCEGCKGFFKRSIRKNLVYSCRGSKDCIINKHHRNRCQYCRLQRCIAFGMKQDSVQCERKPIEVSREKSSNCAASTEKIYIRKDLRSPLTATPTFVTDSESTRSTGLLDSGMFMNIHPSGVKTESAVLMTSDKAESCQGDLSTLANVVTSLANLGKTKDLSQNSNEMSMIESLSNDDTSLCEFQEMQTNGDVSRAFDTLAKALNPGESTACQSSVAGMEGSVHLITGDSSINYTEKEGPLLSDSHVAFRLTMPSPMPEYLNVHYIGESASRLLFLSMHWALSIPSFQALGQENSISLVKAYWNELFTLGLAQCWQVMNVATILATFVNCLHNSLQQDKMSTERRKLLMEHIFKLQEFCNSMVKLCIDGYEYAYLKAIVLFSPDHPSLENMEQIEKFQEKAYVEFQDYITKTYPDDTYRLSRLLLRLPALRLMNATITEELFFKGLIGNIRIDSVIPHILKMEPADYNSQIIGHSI
Procedure: Transfections were performed using the calcium-phosphate precipitation method described above. […] 3 μg of a VPI6-TR2 expression plasmid and 3 μg pG5-CAT reporter plasmid. CAT assays were performed as described above.
Cells were also transfected with a β-galactosidase expression plasmid, pCMV-β-gal, as an internal control for transfection efficiency.

TR2 = biological target: T2, TR2 (Homo sapiens, UniProt P13056); experiment: TR2-mediated transactivation reporter assay; assay type: cell-based; conditions: PC-3 cells; 1 μg expression plasmid
T2 sequence (P13056 1-603): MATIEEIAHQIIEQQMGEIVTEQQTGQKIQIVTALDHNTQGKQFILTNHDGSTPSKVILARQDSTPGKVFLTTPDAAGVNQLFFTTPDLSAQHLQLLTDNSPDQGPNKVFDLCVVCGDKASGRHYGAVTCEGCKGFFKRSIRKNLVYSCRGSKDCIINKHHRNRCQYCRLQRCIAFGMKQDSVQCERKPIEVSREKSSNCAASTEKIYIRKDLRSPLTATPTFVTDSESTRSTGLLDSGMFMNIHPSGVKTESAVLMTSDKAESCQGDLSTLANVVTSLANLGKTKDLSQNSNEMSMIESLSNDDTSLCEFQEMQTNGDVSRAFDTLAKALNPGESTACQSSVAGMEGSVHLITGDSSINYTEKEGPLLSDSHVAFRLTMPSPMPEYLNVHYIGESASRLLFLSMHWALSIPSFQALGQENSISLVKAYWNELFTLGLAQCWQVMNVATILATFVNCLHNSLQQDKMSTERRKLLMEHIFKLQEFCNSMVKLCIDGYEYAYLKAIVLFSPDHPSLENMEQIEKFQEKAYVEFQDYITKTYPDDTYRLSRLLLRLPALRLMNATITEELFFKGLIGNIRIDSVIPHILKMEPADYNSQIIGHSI
Procedure: Transfections and chloramphenicol acetyltransferase (CAT) assays were performed as described previously. Yeh, & Chang, Proc. Natl. Acad. Sci. 93, 5517-5521 (1996). Briefly, 4×10^5 cells were plated in 60-mm dishes and cultured for 24 h, and then the medium was changed to phenol red free DMEM with 5% charcoal-stripped FCS 2 h before transfection. The cells were co-transfected with TR2 and/or ER expression plasmids with 2 μg of TR2-TK-CAT reporter or 1 μg of ERE-CAT reporter gene plasmid, as indicated in the Figures, by using the calcium phosphate precipitation method. A β-gal actosidase expression plasmid, pCMV-β-gal, was transfected in all transfections as an internal control for normalizing transfection efficiency. The total amount of DNA was adjusted up to 10.5 μg with parent vectors, pSG5 or pCMV in each transcriptional activity assay. […] The cells were then harvested and whole cell extracts were used for CAT assay. The CAT activity was quantitated by Phosphorlmager (Molecular Dynamics). Data are presented as means±S.D. of at least three independent experiments.
The CAT reporter assay was used to study the potential consequence of the formation of heterodimers between the TR2 and ER. […] More specifically, H1299 cells were transiently cotransfected with 2 μg of DR4-TK-CAT reporter plasmid and 3 μg of TR2 expression plasmid together with increasing amounts of the ER expression vector. […] Cells were also transfected with internal control reporter plasmid, pCMV-β-gal, as an internal control for transfection efficiency. Luciferase activity was then analyzed following manufacturer's instructions (Promega). […] Similar results were obtained when the DR4-TK-CAT reporter with DR1-HBV-LUC were replaced, another TR2 response element (FIG. 7C).
This conclusion was further confirmed by using the chimera receptor, TR2-androgen receptor (AR) ARp-TR2, which was generated by swapping TR2 proximal box (P-box) with that found in the AR. […] Luciferase activity was then analyzed following manufacturer's instructions (Promega). […]

Sequence of TR4-DR1 (P49116 1-615 isoform P49116-2 N175S/W419R/A428G/K503N/L504W/A613V): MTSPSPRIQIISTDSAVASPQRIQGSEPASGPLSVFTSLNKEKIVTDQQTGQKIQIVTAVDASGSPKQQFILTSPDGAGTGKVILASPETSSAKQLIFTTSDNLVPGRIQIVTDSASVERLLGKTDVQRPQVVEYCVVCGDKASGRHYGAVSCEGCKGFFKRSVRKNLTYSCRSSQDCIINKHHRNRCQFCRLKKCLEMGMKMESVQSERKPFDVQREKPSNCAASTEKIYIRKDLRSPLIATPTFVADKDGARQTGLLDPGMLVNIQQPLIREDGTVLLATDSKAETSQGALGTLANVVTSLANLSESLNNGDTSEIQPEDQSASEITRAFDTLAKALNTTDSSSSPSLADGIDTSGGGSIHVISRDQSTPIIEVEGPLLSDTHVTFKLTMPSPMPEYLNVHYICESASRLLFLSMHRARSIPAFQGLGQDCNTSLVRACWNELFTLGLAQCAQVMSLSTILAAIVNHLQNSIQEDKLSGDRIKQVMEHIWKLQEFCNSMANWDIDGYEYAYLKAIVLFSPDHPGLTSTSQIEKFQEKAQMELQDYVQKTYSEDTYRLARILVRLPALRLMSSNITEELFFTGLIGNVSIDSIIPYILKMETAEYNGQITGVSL

AR: androgen receptor, SEQ ID NO:31
Specific TR4-DR1 band (TR4-DR1): decreased

ER-#6: interaction blocker, ER fragment aa 312-340, as HA-tagged peptide, expression plasmid or cleaved peptide (ADQMVSALLDAEPPILYSEYDPTRPFSEA; also: HA tag (position not given here); UniProt P03372 312-340, looked up, fragment)
ER-TR2 interaction (GAL4-ER / VP16-TR2, pG5-CAT) [1]: suppressed

B1: TR2: human testicular orphan nuclear receptor 2, 603 amino acids (protein, UniProt P13056 1-603, looked up)
chain: MATIEEIAHQIIEQQMGEIVTEQQTGQKIQIVTALDHNTQGKQFILTNHDGSTPSKVILARQDSTPGKVFLTTPDAAGVNQLFFTTPDLSAQHLQLLTDNSPDQGPNKVFDLCVVCGDKASGRHYGAVTCEGCKGFFKRSIRKNLVYSCRGSKDCIINKHHRNRCQYCRLQRCIAFGMKQDSVQCERKPIEVSREKSSNCAASTEKIYIRKDLRSPLTATPTFVTDSESTRSTGLLDSGMFMNIHPSGVKTESAVLMTSDKAESCQGDLSTLANVVTSLANLGKTKDLSQNSNEMSMIESLSNDDTSLCEFQEMQTNGDVSRAFDTLAKALNPGESTACQSSVAGMEGSVHLITGDSSINYTEKEGPLLSDSHVAFRLTMPSPMPEYLNVHYIGESASRLLFLSMHWALSIPSFQALGQENSISLVKAYWNELFTLGLAQCWQVMNVATILATFVNCLHNSLQQDKMSTERRKLLMEHIFKLQEFCNSMVKLCIDGYEYAYLKAIVLFSPDHPSLENMEQIEKFQEKAYVEFQDYITKTYPDDTYRLSRLLLRLPALRLMNATITEELFFKGLIGNIRIDSVIPHILKMEPADYNSQIIGHSI
modifications: full-length
notes: human testicular orphan nuclear receptor 2, 603 amino acids
DR1-HBV-LUC activity (TR2): induced
